Laboratory results as given in IntAct's records for PubMed 15147268.

B1: Suppressor of kinetochore protein 1 (Schizosaccharomyces pombe (strain ATCC 38366 / 972)), Q9Y709 (parent)
chain: MSKIKLISSDNEEFVVDQLIAERSMLIKNMLEDVGEINVPIPLPNVSSNVLRKVLEWCEHHKNDLYSGTEEESDIRLKKSTDIDEWDRKFMAVDQEMLFEIVLASNYLDIKPLLDTGCKTVANMIRGKSPEDIRKTFNIPNDFTPEEEEQIRKENEWAEDR
partner: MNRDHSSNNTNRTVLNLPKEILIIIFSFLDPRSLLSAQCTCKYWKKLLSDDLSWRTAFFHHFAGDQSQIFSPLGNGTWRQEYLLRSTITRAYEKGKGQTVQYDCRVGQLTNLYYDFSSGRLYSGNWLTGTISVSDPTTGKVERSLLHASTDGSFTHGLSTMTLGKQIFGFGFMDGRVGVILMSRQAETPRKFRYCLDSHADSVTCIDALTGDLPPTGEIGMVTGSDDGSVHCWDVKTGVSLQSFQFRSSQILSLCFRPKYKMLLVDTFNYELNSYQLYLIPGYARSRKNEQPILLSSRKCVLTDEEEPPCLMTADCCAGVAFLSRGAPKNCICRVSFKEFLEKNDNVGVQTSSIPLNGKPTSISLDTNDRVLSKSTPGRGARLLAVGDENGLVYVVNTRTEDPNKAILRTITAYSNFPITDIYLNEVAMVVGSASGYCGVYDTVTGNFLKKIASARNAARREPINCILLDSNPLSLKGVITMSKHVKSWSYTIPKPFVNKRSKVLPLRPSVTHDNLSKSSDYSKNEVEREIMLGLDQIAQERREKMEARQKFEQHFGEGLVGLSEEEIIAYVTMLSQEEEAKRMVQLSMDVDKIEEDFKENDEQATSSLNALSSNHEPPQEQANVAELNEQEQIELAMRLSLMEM
B2: Suppressor of kinetochore protein 1 (Schizosaccharomyces pombe (strain ATCC 38366 / 972)), Q9Y709 (parent)
chain: B1 chain
partner: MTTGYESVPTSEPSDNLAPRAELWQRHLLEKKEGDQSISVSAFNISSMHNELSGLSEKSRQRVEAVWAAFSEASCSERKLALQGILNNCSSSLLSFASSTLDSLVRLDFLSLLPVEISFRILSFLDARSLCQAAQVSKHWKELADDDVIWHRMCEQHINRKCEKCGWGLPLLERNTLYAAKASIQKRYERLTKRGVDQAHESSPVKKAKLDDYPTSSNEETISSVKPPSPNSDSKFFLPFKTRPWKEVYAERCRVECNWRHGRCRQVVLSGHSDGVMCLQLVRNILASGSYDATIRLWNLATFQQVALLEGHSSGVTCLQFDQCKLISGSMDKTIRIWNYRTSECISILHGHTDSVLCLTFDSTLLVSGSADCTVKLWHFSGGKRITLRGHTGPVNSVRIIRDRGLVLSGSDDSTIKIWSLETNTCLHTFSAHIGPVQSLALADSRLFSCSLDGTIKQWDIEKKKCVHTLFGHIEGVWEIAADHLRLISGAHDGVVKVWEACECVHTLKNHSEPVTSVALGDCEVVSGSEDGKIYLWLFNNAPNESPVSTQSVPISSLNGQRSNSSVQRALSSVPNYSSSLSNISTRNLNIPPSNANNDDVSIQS
B3: Suppressor of kinetochore protein 1 (Schizosaccharomyces pombe (strain ATCC 38366 / 972)), Q9Y709 (parent)
chain: B1 chain
partner: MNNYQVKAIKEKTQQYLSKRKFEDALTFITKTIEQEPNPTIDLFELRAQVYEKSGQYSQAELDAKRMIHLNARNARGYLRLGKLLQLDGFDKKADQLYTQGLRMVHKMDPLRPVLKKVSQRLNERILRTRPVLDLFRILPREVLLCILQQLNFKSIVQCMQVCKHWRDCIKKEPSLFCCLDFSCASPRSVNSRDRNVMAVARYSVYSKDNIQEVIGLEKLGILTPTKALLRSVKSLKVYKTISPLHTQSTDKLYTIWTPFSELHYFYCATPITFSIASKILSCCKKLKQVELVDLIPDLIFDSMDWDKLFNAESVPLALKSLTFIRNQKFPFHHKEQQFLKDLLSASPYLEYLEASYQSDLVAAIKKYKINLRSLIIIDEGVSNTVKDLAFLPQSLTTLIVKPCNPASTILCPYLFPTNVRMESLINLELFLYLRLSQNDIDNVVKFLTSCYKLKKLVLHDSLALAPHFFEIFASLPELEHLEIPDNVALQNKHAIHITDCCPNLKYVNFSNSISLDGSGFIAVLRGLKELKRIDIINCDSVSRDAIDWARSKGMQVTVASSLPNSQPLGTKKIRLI

Variants of: B1
Conditions: with pof10_schpo pof10, Q9P7W4

effect of a mutation on the interaction | Variant
decreasing interaction | I110T

Variants of: B2
Conditions: with pof1_schpo pof1, P87053

effect of a mutation on the interaction | Variant
decreasing interaction | I110T

Variants of: B3
Conditions: with pof3_schpo pof3, O74991

effect of a mutation on the interaction | Variant
decreasing interaction | I110T
